Experimental data as given in paper PMC4148842.
Blank lines part the entries; values can stand above or below the substance they belong to.

Key:
[1] = biological target: peptide II-44C; assay: solid-phase binding assay (SPBA); conditions: read off a plot
[2] = biological target: peptide II-44E; assay: solid-phase binding assay (SPBA); conditions: read off a plot
[3] = biological target: peptide II-44G; assay: solid-phase binding assay (SPBA); conditions: parent: est. 0.10; read off a plot
[4] = biological target: peptide II-44I; assay: solid-phase binding assay (SPBA); conditions: read off a plot
[5] = biological target: peptide II-44A; assay: solid-phase binding assay (SPBA); conditions: read off a plot
[6] = biological target: peptide II-44F; assay: solid-phase binding assay (SPBA); conditions: read off a plot
[7] = biological target: peptide II-44B; assay: solid-phase binding assay (SPBA); conditions: read off a plot
[8] = biological target: Toolkit peptide II-44; assay: ELISA; solid-phase binding assay (SPBA), Fig. 1: Toolkit II peptides, fibrillar type I collagen or GPP10 coated at 10 μg/ml on Immulon 2 HB wells; MMP preparation or Hpx at 83 nM in TBS with 1 mg/ml BSA and 0.1% Tween-20, 1 h at 24 °C; detected with an antibody to the MMP-13 hinge region (Hpx: anti-GST), A450
[9] = biological target: peptide II-44J; assay: ELISA; SPBA on truncated and Ala-substituted II-44 variant peptides, carried out as for Fig. 1 (Fig. 4)
[10] = biological target: Toolkit peptide II-45; assay: ELISA; solid-phase binding assay (SPBA), Fig. 1: Toolkit II peptides, fibrillar type I collagen or GPP10 coated at 10 μg/ml on Immulon 2 HB wells; MMP preparation or Hpx at 83 nM in TBS with 1 mg/ml BSA and 0.1% Tween-20, 1 h at 24 °C; detected with an antibody to the MMP-13 hinge region (Hpx: anti-GST), A450
[11] = biological target: Toolkit peptide II-54; assay: as above
[12] = biological target: Toolkit peptide II-51; assay: as above
[13] = biological target: Toolkit peptide II-55; assay: as above
[14] = biological target: Toolkit peptide II-13; assay: as above
[15] = biological target: Toolkit peptide II-49; assay: as above
[16] = biological target: Toolkit peptide II-52; assay: as above
[17] = biological target: Toolkit peptide II-28; assay: as above
[18] = biological target: Toolkit peptide II-21; assay: as above
[19] = biological target: Toolkit peptide II-53; assay: as above
[20] = biological target: Toolkit peptide II-56; assay: as above
[21] = biological target: Toolkit peptide II-17; assay: as above
[22] = biological target: Toolkit peptide II-24; assay: as above
[23] = biological target: Toolkit peptide II-50; assay: as above
[24] = biological target: Fibrous bovine type I collagen (bovine) (UniProt P02453); assay: ELISA; SPBA, increasing concentrations of MMP-13 or MMP-13(E204A) on wells coated with fibrillar or monomeric type I collagen (10 μg/ml); KD from fitted curves (Fig. 3)
Sequence of Fibrous bovine type I collagen (bovine) (P02453 162-1217, chain 1 of 2): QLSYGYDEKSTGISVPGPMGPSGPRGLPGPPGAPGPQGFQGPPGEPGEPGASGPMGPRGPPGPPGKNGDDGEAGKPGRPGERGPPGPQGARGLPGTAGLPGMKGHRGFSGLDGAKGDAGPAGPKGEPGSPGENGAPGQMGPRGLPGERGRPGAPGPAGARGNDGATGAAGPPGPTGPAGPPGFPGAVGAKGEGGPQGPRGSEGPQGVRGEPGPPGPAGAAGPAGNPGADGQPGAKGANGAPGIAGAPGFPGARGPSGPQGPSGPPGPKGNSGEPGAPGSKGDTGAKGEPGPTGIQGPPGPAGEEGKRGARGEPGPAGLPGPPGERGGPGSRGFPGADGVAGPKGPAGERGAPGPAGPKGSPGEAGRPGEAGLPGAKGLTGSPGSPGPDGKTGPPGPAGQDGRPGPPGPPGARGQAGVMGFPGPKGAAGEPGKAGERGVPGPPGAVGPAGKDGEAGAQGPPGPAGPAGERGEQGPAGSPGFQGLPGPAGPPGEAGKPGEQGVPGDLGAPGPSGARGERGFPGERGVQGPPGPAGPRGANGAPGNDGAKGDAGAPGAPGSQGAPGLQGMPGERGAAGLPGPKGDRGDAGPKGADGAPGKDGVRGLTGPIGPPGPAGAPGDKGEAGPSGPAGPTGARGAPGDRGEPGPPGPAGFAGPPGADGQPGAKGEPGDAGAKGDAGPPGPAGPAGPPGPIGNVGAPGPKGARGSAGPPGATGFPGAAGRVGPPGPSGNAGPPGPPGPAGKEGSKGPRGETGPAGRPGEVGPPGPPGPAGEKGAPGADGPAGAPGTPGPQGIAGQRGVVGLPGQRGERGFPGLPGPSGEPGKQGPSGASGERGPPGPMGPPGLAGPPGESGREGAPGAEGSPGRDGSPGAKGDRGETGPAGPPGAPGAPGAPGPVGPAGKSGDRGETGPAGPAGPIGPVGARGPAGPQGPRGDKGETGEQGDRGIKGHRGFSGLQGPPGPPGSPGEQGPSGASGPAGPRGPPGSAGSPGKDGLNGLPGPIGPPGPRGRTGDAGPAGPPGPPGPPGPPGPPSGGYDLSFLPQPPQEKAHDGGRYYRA
Sequence of Fibrous bovine type I collagen (bovine) (P02465 80-1117, chain 2 of 2, further chain): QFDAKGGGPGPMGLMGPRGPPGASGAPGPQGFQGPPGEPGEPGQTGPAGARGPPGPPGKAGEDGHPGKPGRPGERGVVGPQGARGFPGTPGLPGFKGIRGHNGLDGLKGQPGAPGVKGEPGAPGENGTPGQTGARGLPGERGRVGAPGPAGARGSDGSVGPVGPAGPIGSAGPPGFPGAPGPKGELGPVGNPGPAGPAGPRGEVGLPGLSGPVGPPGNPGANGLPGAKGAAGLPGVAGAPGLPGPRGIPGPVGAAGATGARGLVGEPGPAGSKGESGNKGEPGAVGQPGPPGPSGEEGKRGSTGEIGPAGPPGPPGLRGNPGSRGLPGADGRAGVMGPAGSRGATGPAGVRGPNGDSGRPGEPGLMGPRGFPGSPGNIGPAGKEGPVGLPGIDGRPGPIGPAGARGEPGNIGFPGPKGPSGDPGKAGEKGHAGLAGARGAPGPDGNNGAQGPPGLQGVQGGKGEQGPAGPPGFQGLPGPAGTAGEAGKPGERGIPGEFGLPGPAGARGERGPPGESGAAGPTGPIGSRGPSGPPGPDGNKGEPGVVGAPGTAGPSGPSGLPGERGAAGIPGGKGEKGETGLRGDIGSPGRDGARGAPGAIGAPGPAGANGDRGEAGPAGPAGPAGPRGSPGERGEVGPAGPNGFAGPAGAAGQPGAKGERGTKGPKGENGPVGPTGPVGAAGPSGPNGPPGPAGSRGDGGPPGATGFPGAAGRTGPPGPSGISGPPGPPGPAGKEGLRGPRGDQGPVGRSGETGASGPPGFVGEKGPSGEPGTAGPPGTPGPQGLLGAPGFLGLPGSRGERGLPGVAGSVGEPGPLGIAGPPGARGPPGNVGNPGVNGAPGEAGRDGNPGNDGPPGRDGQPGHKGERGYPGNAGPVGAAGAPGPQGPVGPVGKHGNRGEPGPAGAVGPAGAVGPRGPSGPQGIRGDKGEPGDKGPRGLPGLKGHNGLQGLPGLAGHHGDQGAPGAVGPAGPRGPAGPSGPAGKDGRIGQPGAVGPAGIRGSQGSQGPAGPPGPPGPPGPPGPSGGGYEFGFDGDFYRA

[25] = biological target: Monomeric collagen (type I) (UniProt P02453); assay: as above
Sequence of Monomeric collagen (type I) (P02453 162-1217, chain 1 of 2): as the sequence (P02453 162-1217, chain 1 of 2) above
Sequence of Monomeric collagen (type I) (P02465 80-1117, chain 2 of 2, further chain): as the sequence (P02465 80-1117, chain 2 of 2, further chain) above

[26] = biological target: Fibrous bovine type I collagen (bovine) (UniProt P02453); assay: ELISA; solid-phase binding assay (SPBA), Fig. 1: Toolkit II peptides, fibrillar type I collagen or GPP10 coated at 10 μg/ml on Immulon 2 HB wells; MMP preparation or Hpx at 83 nM in TBS with 1 mg/ml BSA and 0.1% Tween-20, 1 h at 24 °C; detected with an antibody to the MMP-13 hinge region (Hpx: anti-GST), A450
[27] = biological target: peptide II-44D; assay: solid-phase binding assay (SPBA); conditions: parent: est. 0.19; read off a plot
[28] = biological target: peptide II-44J; assay: solid-phase binding assay (SPBA); conditions: parent: est. 0.26; read off a plot
[29] = biological target: peptide II-44H; assay: solid-phase binding assay (SPBA); conditions: parent: est. 0.31; read off a plot

Substance: MMP-13 GST-Hpx domain (domain or fragment)
A450 [8]: 0.8 A450
A450 [9]: 0.4 A450

Substance: MMP-13(E204A) (enzyme)
A450 [10]: > 0.3 A450
A450 [11]: > 0.3 A450
A450 [12]: > 0.3 A450
A450 [13]: > 0.3 A450
A450 [14]: > 0.3 A450
A450 [15]: > 0.3 A450
A450 [16]: > 0.3 A450
A450 [17]: < 0.2 A450
A450 [18]: > 0.3 A450
A450 [19]: > 0.3 A450
A450 [20]: > 0.3 A450
A450 [21]: > 0.3 A450
A450 [22]: < 0.2 A450
A450 [8]: > 1.2 A450
A450 [23]: > 0.3 A450
Kd [24]: 52 nM
Kd [25]: 26 nM
A450 [9]: 0.8 A450

Substance: proMMP-13 (from UniProt P45452) E204A
response [27]: 0.15 A450
response ([1]; parent: est. 0.24): 0.23 A450
response ([2]; parent: est. 0.33): 0.31 A450
response [28]: 0.29 A450
response ([4]; parent: est. 0.41): 0.36 A450
response ([5]; parent: est. 0.41): 0.41 A450
response ([6]; parent: est. 0.09): 0.12 A450
response [29]: 0.29 A450
response ([7]; parent: est. 0.08): 0.08 A450

Further lines, results first:

response ([1]; parent: est. 0.18): 0.87 A450
response ([2]; parent: est. 0.16): 0.95 A450
response [3]: 0.57 A450
response ([4]; parent: est. 0.20): 1.1 A450
response ([5]; parent: est. 0.19): 1.1 A450
response ([6]; parent: est. 0.08): 0.57 A450
response ([7]; parent: est. 0.09): 0.15 A450
Substance: MMP-13 (from UniProt P45452) E204A

A450 [26]: > 1 A450
Substance: proMMP-13 (from UniProt P45452 20-471) (enzyme)
